{"source": "patent US9304127B2", "about": "“Anti-adrenomedullin (ADM) antibody or anti-ADM antibody fragment for use in therapy” (ADRENOMED AG, priority 2011, dated 2016)", "molecules": {"B1": {"name": "NT-H: murine monoclonal antibody raised against human ADM region 1-21 (SEQ ID: 15) (antibody, V domains shown)", "VH": "QVQLQQSGAELMKPGASVKISCKATGYTFSRYWIEWVKQRPGHGLEWIGEILPGSGSTNYNEKFKGKATITADTSSNTAYMQLSSLTSEDSAVYYCTEGYEYDGFDYWGQGTTLTVSS", "VL": "DVLLSQTPLSLPVSLGDQATISCRSSQSIVYSNGNTYLEWYLQKPGQSPKLLIYRVSNRFSGVPDRFSGSGSGTDFTLKISRVEAEDLGVYYCFQGSHIPYTFGGGTKLEIK"}}, "target": "T1, hADM (Homo sapiens, UniProt P35318)", "T1 construct": "comprises the amino acids 95 to 146 of pre-proADM; host or cells: added to human citrate plasma", "T1 sequence (P35318 95-146)": "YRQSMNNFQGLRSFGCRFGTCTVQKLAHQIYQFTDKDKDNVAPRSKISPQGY", "experiment": "Stability of human Adrenomedullin in human citrate plasma (hADM immunoassay)", "assay_type": "in vitro ADME", "conditions": "24° C., hADM 10 nM, NT-H 100 μg/ml", "method": "The stabilizing effect of human ADM by human ADM antibodies was tested using a hADM immunoassay.\nThe technology used was a sandwich coated tube luminescence immunoassay, based on Acridinium ester labelling.\nThe final concentration was approx. 800.000 relative light units (RLU) of labelled compound (approx. 20 ng labeled antibody) per 200 μL.\nAfter blocking with 5% bovine serum albumine, the tubes were washed with PBS, pH 7.4 and vacuum dried.\nThe assay was calibrated, using dilutions of hADM\n(BACHEM AG, Switzerland) in 250 mmol/L NaCl, 2 g/L Triton X-100, 50 g/L Bovine Serum Albumin, 20 tabs/L Protease Inhibitor Cocktail (Roche Diagnostics AG, Switzerland))\nUnbound tracer was removed by washing 5 times (each 1 ml) with washing solution (20 mM PBS, pH 7.4, 0.1% Triton X-100).\nHuman ADM was diluted in human Citrate plasma (final concentration 10 nM) and incubated at 24° C. At selected time points, the degradation of hADM was stopped by freezing at −20° C. […] The remaining hADM was quantified by using the hADM immunoassay described above.", "data": [{"molecule": "B1", "values": [{"measurement": "half life of hADM in the presence of NT-H", "value": 18.3, "unit": "h"}]}]}
